Measured values: paper PMC9384988, “The TPR domain of PgaA is a multifunctional scaffold that binds PNAG and modulates PgaB-dependent polymer processing” (PLoS Pathogens, 2022)

Tests used:
PgaA-220-367 = target: T1, PgaA-220-367 (Escherichia coli, UniProt P69434); assay: Tryptophan quenching, wild-type PgaA-220-367; format: binding, E. coli; details: substrate concentration 4.5 mM
T1 construct: His6 (thrombin cleavable, pET28) (N); made in house; host or cells: E. coli BL21 CodonPlus (DE3)
T1 sequence (P69434 220-367): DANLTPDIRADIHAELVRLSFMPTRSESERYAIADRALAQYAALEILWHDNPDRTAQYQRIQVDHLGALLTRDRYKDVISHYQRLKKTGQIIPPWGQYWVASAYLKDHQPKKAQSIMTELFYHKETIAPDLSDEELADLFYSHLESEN
Description: Fluorescence measurements were carried out at 20°C in a quartz cuvette (type no. 115F-QS; Hellma Analytics) using a PTI QuantaMaster 80 steady-state fluorometer (Photon Technology International), with a 4-nm bandwidth for both excitation and emission and a speed of 2 nm/s. Fluorescence spectra were collected between 300 nm and 400 nm with an excitation wavelength of 280 nm and a peak emission wavelength of 334 nm. All samples were prepared in triplicates 10 minutes ahead of the collection in a solution containing 1 μM protein, 20 mM Tris buffer pH 8.0, 150 mM sodium chloride and 1 mM concentrations of dPNAG oligomers. Data measured for each sample was corrected for ligand fluorescence and inner filter effect. […] To obtain an approximate binding affinity the dPNAG oligomer concentration was varied between 0–10 mM.

His-PgaA (PgaA-32-807) = target: T2, His-PgaA (PgaA-32-807) (E. coli K-12, UniProt P69434 32-807); assay: co-purification (NiNTA, gel filtration) with SDS-PAGE; His-PgaA and PgaB constructs co-expressed in BL21, extracted with 1% DDM, purified by NiNTA and gel filtration (20 mM Tris pH 8, 150 mM NaCl, 0.1% DDM); Coomassie gel of the purified complexes; details: partners not purified
T2 construct: also called His-PgaA-32-807; full-length PgaA; source: E. coli BL21: co-expressed with PgaB, in DDM extract of the lysate pellet (pull-down); expressed alone or with PgaB and purified (NiNTA, gel filtration, DDM); not shown: His6, N-terminal, kept
T2 sequence (looked up): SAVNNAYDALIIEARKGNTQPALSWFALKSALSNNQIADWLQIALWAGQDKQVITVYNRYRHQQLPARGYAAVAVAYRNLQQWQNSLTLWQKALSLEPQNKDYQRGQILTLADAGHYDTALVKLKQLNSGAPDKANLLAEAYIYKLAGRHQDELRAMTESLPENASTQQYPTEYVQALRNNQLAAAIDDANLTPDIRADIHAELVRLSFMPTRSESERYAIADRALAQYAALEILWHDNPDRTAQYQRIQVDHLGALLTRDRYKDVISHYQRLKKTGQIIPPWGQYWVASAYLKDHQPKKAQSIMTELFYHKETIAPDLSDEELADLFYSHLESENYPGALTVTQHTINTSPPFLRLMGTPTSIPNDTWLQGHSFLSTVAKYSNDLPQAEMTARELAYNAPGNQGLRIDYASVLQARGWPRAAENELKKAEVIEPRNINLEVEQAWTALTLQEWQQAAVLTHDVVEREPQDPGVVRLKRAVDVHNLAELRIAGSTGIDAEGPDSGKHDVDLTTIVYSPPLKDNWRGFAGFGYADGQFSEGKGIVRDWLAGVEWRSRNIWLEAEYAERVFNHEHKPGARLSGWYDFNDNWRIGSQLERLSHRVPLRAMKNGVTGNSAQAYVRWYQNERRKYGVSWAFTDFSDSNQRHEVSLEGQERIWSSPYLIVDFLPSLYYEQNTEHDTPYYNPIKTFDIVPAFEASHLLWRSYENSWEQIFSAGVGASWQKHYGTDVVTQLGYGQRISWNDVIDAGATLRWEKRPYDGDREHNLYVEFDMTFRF

[1] = Fluorescamine de-acetylation assay; format: biochemical; details: 30 μM enzyme and 30 mM PNAG hexamer; fluorescamine readout
Description: (§1) To determine whether the modulation of enzyme activity might be a common theme for the TPR domain across synthase-dependent systems, we assayed the deacetylase and glycoside hydrolase activities of PgaB in the presence and absence of PgaA. As we used co-expression to obtain the complexes, a SDS PAGE gel of the purified solutions of PgaA, PgaB and PgaA/B complexes was analyzed to ensure that equal quantities of the protein/protein complex were used (Fig 2A). Consistent with previous published studies, PgaA and PgaB appear to form a 1:1 complex. The deacetylase activity was assessed using a fluorescamine-based assay with fully acetylated PNAG hexamers as the substrate. As fluorescamine detects the presence of primary amines, which are generated during the deacetylation of the PNAG oligosaccharide, this assay provides a direct readout of the deacetylation activity of PgaB. To assess the glycoside hydrolase activity, we used a biofilm disruption assay, which has been used previously to characterize PgaB’s glycosidase activity. In this assay, biofilms of Staphylococcus epidermidis strain SE801 were grown in 96 well plates for 24 h, at which point PgaB was added. After a further 2 h, the reaction was quenched, plates washes and the amount of adherent biofilm remaining quantified using crystal violet staining. […]

[2] = test system: Staphylococcus epidermidis strain SE801 biofilms; assay: Crystal violet-based biofilm disruption assay (glycoside hydrolase activity); format: cell-based; details: S. epidermidis SE801 biofilm, 2 h, lower EC50 = higher glycoside hydrolase activity
Description: as §1, with “To assess the glycoside hydrolase activity, we used a biofilm disruption assay, which has been used previously to characterize PgaB’s glycosidase activity. In this assay, biofilms of Staphylococcus epidermidis strain SE801 were grown in 96 well plates for 24 h, at which point PgaB was added.” left out
Cultures of S. epidermidis clinical isolate SE801 were grown overnight at 37°C with shaking at 200 rpm in LB broth without antibiotics. […] The remaining dye was solubilized with 100 μl of 95% (v/v) ethanol for 10 min with rotation, after which time the absorbance was measured at 595 nm.

For chitin, the “quenching of the signal at 334nm” value (PgaA-220-367) was 9%.

B1: PgaB (PgaB-1-672) (enzyme, E. coli, UniProt P75906 21-672, looked up)
chain: CISQSRTSFIPPQDRESLLAEQPWPHNGFVAISWHNVEDEAADQRFMSVRTSALREQFAWLRENGYQPVSIAQIREAHRGGKPLPEKAVVLTFDDGYQSFYTRVFPILQAFQWPAVWAPVGSWVDTPADKQVKFGDELVDREYFATWQQVREVARSRLVELASHTWNSHYGIQANATGSLLPVYVNRAYFTDHARYETAAEYRERIRLDAVKMTEYLRTKVEVNPHVFVWPYGEANGIAIEELKKLGYDMFFTLESGLANASQLDSIPRVLIANNPSLKEFAQQIITVQEKSPQRIMHIDLDYVYDENLQQMDRNIDVLIQRVKDMQISTVYLQAFADPDGDGLVKEVWFPNRLLPMKADIFSRVAWQLRTRSGVNIYAWMPVLSWDLDPTLTRVKYLPTGEKKAQIHPEQYHRLSPFDDRVRAQVGMLYEDLAGHAAFDGILFHDDALLSDYEDASAPAITAYQQAGFSGSLSEIRQNPEQFKQWARFKSRALTDFTLELSARVKAIRGPHIKTARNIFALPVIQPESEAWFAQNYADFLKSYDWTAIMAMPYLEGVAEKSADQWLIQLTNQIKNIPQAKDKSILELQAQNWQKNGQHQAISSQQLAHWMSLLQLNGVKNYGYYPDNFLHNQPEIDLIRPEFSTAWYPKND
modifications: C21 lipidated (residues 1-20 are a signal sequence that is cleaved during periplasmic targeting)
notes: signal peptide in the construct; Untagged; also called full-length PgaB; untagged PgaB; source: E. coli BL21: co-expressed with His-PgaA constructs, in DDM extract or co-purified; also separately expressed, cell pellet mixed with the PgaA pellet before lysis
In the case of B1, the “stoichiometry N” value (His-PgaA (PgaA-32-807)) is reported as 1.

B2: PgaB: soluble E. coli PgaB residues 22–672, de-N-acetylase and glycoside hydrolase (protein)
chain: CISQSRTSFIPPQDRESLLAEQPWPHNGFVAISWHNVEDEAADQRFMSVRTSALREQFAWLRENGYQPVSIAQIREAHRGGKPLPEKAVVLTFDDGYQSFYTRVFPILQAFQWPAVWAPVGSWVDTPADKQVKFGDELVDREYFATWQQVREVARSRLVELASHTWNSHYGIQANATGSLLPVYVNRAYFTDHARYETAAEYRERIRLDAVKMTEYLRTKVEVNPHVFVWPYGEANGIAIEELKKLGYDMFFTLESGLANASQLDSIPRVLIANNPSLKEFAQQIITVQEKSPQRIMHIDLDYVYDENLQQMDRNIDVLIQRVKDMQISTVYLQAFADPDGDGLVKEVWFPNRLLPMKADIFSRVAWQLRTRSGVNIYAWMPVLSWDLDPTLTRVKYLPTGEKKAQIHPEQYHRLSPFDDRVRAQVGMLYEDLAGHAAFDGILFHDDALLSDYEDASAPAITAYQQAGFSGSLSEIRQNPEQFKQWARFKSRALTDFTLELSARVKAIRGPHIKTARNIFALPVIQPESEAWFAQNYADFLKSYDWTAIMAMPYLEGVAEKSADQWLIQLTNQIKNIPQAKDKSILELQAQNWQKNGQHQAISSQQLAHWMSLLQLNGVKNYGYYPDNFLHNQPEIDLIRPEFSTAWYPKND
modifications: C21 lipidated (residues 1-20 are a signal sequence that is cleaved during periplasmic targeting)
notes: soluble E. coli PgaB residues 22–672, de-N-acetylase and glycoside hydrolase
In the case of B2, the “concentration of GlcN produced” value [1] is reported as 988.6 ± 104.7 µM and the EC50 [2] is reported as 302 ± 82.3 nM.
